Laboratory results published in patent US20040072750A1, “Compounds and methods for the modulation of CD154” (priority 2001, published 2004).

Test system: CD154−/− mice
Assay: Intravital microscopy thrombosis model of the mouse mesentery (FeCl3-injured arteriole)
Format: in vivo
Details: single dose 26 μg/mouse, 5 to 10 minutes before arteriole injury
Method: The role of CD154 in thrombus formation was investigated using a model that compares wild type (WT) mice with CD154−/− mice that have impaired thrombosis. […] It was observed that the occlusion time is approximately twice as long in the CD 154−/− mouse as in wild type, apart from any other treatment effect.
In this example, the recombinant form of the soluble CD154 was infused into the CD154−/− mouse. Thrombus formation was evaluated using the model as described below.
To perform the investigation, the intravital microscopy thrombosis model of the mouse mesentery was used (Denis et al., PNAS, 95:9524-9, (1998)). The interactions of fluorescently-labeled platelets with a FeCl3-injured arteriolar vessel wall (shear rate ˜1300 s^−1) were analyzed. […]
Immediately after infusion of fluorescent platelets into mice of matching genotypes (4- to 5-weeks old C57BL6J and CD154−/−), animals were anesthetized with 2.5% tribromoethanol (0.15 mL/10 g). […] The shear rate (1000 to 1300 s^−1) was calculated using an optical Doppler velocimeter using known methods (see, e.g., Blood, November 2000). […]
Resting blood vessel was recorded for 2 minutes, then Ferric Chloride (30 μl of a 250-mM solution) was superfused, and video recording was resumed for another 40 minutes, or until full occlusion occurred and lasted for more than 10 seconds. […]

B1: rsCD154: bacterially expressed recombinant human soluble CD154 (108 a.a-261 a.a.), 18-kDa protein (protein)
chain: ENSFEMQKGDQNPQIAAHVISEASSKTTSVLQWAEKGYYTMSNNLVTLENGKQLTVKRQGLYYIYAQVTFCSNREASSQAPFIASLCLKSPGRFERILLRAANTHSSAKPCGQQSIHLGGVFELQPGASVFVNVTDPSQVSHGTGFTSFGLLKL
- thrombotic process (occlusion) in CD154−/− mice: reconstitute a normal thrombotic process
